For experiment [1], the target named is T1, human PD-L1 on cells (PDLI-293 / HEK-293 cells expressing PD-L1, MDA-MB-231 cells, activated CD4 cells, … (human, UniProt Q9NZQ7 19-290)).
T1 construct: whole, on cells
Put plainly: binding to MDA-MB-231 cells, FIG. 19.

In another experiment the target is T2, soluble human PDL1 (human, UniProt Q9NZQ7 19-239, limits assumed).
T2 construct: May be the same protein as the human PDL1-Fc; also called soluble PDL1
Put plainly: binding assay of FIG. 17.

The target of a further experiment is T3, soluble mouse PDL1 (mouse, UniProt Q9EP73 19-238, limits assumed).
T3 construct: May be the same protein as the murine PDL1-Fc
Kind of experiment: binding assay of FIG. 17.

For the next experiment, the target named is T4, human PDL2 (human, UniProt Q9BQ51 20-219, limits assumed).
T4 sequence (looked up): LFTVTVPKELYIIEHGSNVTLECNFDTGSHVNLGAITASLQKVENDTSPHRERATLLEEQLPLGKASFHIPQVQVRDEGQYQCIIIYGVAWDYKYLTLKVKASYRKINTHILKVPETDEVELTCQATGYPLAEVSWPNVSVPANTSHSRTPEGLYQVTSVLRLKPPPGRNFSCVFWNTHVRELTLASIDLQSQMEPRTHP
Kind of experiment: binding assay of FIG. 17.

T2 sequence (Q9NZQ7 19-239 limits assumed): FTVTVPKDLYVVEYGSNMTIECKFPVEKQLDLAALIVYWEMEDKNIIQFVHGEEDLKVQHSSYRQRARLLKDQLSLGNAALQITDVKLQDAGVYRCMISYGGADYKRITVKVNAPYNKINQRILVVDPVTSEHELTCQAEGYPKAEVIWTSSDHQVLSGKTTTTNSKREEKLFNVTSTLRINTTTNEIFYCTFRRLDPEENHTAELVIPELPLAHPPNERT
T1 sequence (Q9NZQ7 19-290): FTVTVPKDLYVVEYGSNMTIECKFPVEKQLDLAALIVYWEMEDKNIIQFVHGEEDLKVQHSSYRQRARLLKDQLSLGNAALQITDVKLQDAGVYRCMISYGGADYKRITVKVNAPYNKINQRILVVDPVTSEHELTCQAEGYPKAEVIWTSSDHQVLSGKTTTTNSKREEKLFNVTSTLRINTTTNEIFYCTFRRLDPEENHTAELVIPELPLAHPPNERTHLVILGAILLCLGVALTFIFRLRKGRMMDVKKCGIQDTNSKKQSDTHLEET
T3 sequence (Q9EP73 19-238 limits assumed): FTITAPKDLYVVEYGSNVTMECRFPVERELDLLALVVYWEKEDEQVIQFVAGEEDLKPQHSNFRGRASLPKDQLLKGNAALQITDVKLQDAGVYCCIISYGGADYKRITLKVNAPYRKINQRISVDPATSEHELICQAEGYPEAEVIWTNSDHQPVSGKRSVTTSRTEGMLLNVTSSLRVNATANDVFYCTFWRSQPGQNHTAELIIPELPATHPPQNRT

B1: tccD7_#114 (antibody, V domains shown)
VH: EVQLLESGGGLVQPGGSLRLSCAASGFTFSSYLMVWVRQAPGKGLEWVSSIYPSGGITFYADSVKGRFTISRDNSKNTLYLQMNSLRAEDTAIYYCARIKLGTVTTVDYWGQGTLVTVSS
VL: QSALTQPASVSGSPGQSITISCTGTSSDVGAYNYVSWYQQHPGKAPKLMIYDVSNRPSGVSNRFSGSKSGNTASLTISGLQAEDEADYYCSSYTSSSTRVFGTGTKVTVLG
notes: converted to IgG and to an IgG with two Leu-Ala substitutions
Consider B1, for which the binding result is given as “binds” in experiment [1], “binds” with soluble human PDL1, “binds” in the experiment with soluble mouse PDL1 and “no binding” with human PDL2.

B2: tccD7_#102 (antibody, V domains shown)
VH: EVQLLESGGGLVQPGGSLRLSCAASGFTFSAYRMFWVRQAPGKGLEWVSSIYPSGGITFYADSVKGRFTISRDNSKNTLYLQMNSLRAEDTAIYYCARIKLGTVTTVDYWGQGTLVTVSS
VL: QSALTQPASVSGSPGQSITISCTGTSSDVGAYNYVSWYQQHPGKAPKLMIYDVSNRPSGVSNRFSGSKSGNTASLTISGLQAEDEADYYCSSYTSSSTRVFGTGTKVTVLG
notes: converted to IgG and to an IgG with two Leu-Ala substitutions; also called tccD7_#2; cD7_#2
As to B2, the binding result is recorded as “binds” in experiment [1], “binds” in the experiment with soluble human PDL1, “binds” with soluble mouse PDL1 and “no binding” with human PDL2.

(Values after US20160340429A1 (KADMON, published 2016).)
